These results are taken from publication PMC3507203 (Biology Open, 2011).

For this test, the target named is T1, GST-tagged KLHL18 (human, UniProt O94889 1-574).
T1 sequence (looked up): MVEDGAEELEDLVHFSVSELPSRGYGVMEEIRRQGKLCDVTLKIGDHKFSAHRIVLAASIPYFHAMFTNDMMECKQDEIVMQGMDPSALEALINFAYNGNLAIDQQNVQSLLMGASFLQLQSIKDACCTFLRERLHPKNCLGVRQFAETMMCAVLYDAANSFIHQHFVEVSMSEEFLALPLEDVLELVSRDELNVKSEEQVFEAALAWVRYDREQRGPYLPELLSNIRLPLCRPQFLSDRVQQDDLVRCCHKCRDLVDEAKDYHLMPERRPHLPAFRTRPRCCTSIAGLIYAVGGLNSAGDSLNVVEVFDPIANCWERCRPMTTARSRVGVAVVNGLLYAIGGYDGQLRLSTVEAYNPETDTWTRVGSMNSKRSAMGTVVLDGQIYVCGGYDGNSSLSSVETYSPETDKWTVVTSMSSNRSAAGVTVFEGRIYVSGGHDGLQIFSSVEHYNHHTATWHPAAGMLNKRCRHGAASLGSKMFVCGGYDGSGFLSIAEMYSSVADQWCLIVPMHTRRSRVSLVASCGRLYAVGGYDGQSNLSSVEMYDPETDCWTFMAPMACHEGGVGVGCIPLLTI
The experiment in a line: pull-down.

B1: histidine-tagged Aurora-A (natural protein, human, UniProt O14965 1-403, looked up)
chain: MDRSKENCISGPVKATAPVGGPKRVLVTQQFPCQNPLPVNSGQAQRVLCPSNSSQRIPLQAQKLVSSHKPVQNQKQKQLQATSVPHPVSRPLNNTQKSKQPLPSAPENNPEEELASKQKNEESKKRQWALEDFEIGRPLGKGKFGNVYLAREKQSKFILALKVLFKAQLEKAGVEHQLRREVEIQSHLRHPNILRLYGYFHDATRVYLILEYAPLGTVYRELQKLSKFDEQRTATYITELANALSYCHSKRVIHRDIKPENLLLGSAGELKIADFGWSVHAPSSRRTTLCGTLDYLPPEMIEGRMHDEKVDLWSLGVLCYEFLVGKPPFEANTYQETYKRISRVEFTFPDFVTEGARDLISRLLKHNPSQRPMLREVLEHPWITANSSKPSNCQNKESASKQS
As to B1, the binding result is listed as “binds”.
